Blank lines part the entries; values can stand above or below the binder they belong to.
How the values were obtained:
[1] = target: T1, human FcγR CD32a R131-GST fusion protein (human, UniProt P12318 34-217); assay: ALPHAscreen competition
T1 chain: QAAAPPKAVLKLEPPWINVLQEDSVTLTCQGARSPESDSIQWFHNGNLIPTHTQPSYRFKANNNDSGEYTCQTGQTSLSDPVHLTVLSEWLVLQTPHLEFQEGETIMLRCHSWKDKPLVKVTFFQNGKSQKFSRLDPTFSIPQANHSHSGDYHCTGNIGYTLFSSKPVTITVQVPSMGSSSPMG

[2] = target: T2, human FcγR CD64-GST fusion protein (human, UniProt P12314 16-292); assay: ALPHAscreen competition
T2 chain: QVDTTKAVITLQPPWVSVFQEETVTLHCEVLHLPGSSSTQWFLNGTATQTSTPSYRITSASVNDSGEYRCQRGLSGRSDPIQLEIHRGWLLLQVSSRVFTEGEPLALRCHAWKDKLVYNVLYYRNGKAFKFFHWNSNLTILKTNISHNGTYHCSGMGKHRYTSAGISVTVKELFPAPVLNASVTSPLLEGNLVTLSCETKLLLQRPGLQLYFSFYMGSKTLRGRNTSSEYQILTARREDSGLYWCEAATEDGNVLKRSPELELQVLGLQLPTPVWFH

[3] = target: T3, human FcγR CD32b-GST fusion protein (human, UniProt P31994 43-217); assay: ALPHAscreen competition
T3 chain: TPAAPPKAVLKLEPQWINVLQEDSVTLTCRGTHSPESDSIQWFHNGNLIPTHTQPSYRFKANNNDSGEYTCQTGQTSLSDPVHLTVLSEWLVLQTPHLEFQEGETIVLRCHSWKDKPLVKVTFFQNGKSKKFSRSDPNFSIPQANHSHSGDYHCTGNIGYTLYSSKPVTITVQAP

[4] = target: human FcγR CD16a V158-GST fusion protein (human, UniProt P08637 17-208); assay: ALPHAscreen competition
Sequence of human FcγR CD16a V158-GST fusion protein (P08637 17-208 F176V): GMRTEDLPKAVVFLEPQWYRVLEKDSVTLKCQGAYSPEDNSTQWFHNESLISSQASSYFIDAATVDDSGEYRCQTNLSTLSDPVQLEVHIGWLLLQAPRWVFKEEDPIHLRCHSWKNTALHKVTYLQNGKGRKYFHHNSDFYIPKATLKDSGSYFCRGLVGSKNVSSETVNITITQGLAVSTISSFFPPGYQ

[5] = target: T4, cynomolgus monkey CD40 (cell surface); assay: flow cytometry, B cells in whole blood; geometric mean, A647-conjugated
T4 chain: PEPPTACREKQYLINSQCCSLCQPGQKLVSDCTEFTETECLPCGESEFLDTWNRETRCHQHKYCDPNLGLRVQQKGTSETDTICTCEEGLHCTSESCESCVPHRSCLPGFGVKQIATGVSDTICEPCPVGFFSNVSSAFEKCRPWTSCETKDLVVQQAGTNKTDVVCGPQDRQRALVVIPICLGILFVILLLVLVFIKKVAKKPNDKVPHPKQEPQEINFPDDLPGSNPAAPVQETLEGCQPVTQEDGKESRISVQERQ

[6] = target: T5, human CD40 (cell surface) (UniProt P25942 20-277); assay: as above
[7] = target: T5, human CD40 (cell surface); assay: flow cytometry, B cells in whole blood; A647-conjugated
[8] = target: T6, rhesus monkey CD40 (cell surface) (rhesus monkey, UniProt F6SNI1 21-278); assay: flow cytometry, CHO-CD40; avid
T6 chain: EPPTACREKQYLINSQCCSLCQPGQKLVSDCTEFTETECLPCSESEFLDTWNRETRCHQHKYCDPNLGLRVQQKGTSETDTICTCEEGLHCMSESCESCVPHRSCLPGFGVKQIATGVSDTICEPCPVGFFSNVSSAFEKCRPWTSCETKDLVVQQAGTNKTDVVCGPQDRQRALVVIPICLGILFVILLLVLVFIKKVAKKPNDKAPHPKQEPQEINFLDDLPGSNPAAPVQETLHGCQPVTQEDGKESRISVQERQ

[9] = target: T4, cynomolgus monkey CD40 (cell surface); assay: flow cytometry, CHO-CD40; avid
[10] = target: T5, human CD40 (cell surface); assay: flow cytometry, CHO-CD40; avid
[11] = target: T5, human CD40 (cell surface); assay: flow cytometry; 4-P fit parameter C

IC50 [1]: 118 µg/mL
IC50 [2]: 14.7 µg/mL
IC50 [3]: 282 µg/mL
IC50 [4]: 680 µg/mL
B1: Exemplary Anti-CD40 Antibody 1 (antibody)
heavy: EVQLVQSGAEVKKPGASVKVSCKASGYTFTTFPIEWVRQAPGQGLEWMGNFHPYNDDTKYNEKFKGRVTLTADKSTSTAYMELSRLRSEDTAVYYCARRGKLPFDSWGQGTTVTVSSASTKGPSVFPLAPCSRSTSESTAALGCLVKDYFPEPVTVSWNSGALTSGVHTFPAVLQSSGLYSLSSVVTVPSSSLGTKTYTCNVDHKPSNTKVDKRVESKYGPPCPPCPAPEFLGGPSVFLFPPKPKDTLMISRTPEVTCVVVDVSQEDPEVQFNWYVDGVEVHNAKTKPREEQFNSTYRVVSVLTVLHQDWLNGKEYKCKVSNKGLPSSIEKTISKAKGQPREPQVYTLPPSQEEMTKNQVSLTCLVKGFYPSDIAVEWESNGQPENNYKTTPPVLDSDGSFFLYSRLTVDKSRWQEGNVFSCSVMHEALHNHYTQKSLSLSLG
light: DIQMTQSPSSLSASVGDRVTISCRASQDISNYLNWYQQKPGKVPKLLIYFTSRLRSGVPSRFSGSGSGTDYTLTISSLQPEDVATYYCQQDRKLPWTFGQGTKLEIKRTVAAPSVFIFPPSDEQLKSGTASVVCLLNNFYPREAKVQWKVDNALQSGNSQESVTEQDSKDSTYSLSSTLTLSKADYEKHKVYACEVTHQGLSSPVTKSFNRGEC
modifications: Alexa647 conjugate in some whole-blood assays; N-linked glycan on the heavy chain; neither is carried by the letters.

EC50 [5]: 0.109 µg/mL
EC50 [6]: 0.0626 µg/mL
EC50 [7]: 0.0777 µg/mL
EC50 [8]: 0.249 µg/mL
EC50 [9]: 0.131 µg/mL
EC50 [10]: 0.0895 µg/mL
EC50 [11]: 0.0804 µg/mL
B2: Agly hAKH3 IgG4P/IgG1 (antibody, V domains shown)
VH: EVQLVQSGAEVKKPGASVKVSCKASGYTFTTFPIEWVRQAPGQGLEWMGNFHPYNDDTKYNEKFKGRVTLTADKSTSTAYMELSRLRSEDTAVYYCARRGKLPFDSWGQGTTVTVSS
VL: DIQMTQSPSSLSASVGDRVTISCRASQDISNYLNWYQQKPGKVPKLLIYFTSRLRSGVPSRFSGSGSGTDYTLTISSLQPEDVATYYCQQDRKLPWTFGQGTKLEIK
